These results are taken from patent EP4647443A1 (Max-Planck-Gesellschaft zur Förderung der Wissenschaften …, dated 2025).

First the molecules themselves.
T1: S. aureus gamma-hemolysin component A (HlgA) (Staphylococcus aureus, UniProt P0A071 30-309)
T1 sequence: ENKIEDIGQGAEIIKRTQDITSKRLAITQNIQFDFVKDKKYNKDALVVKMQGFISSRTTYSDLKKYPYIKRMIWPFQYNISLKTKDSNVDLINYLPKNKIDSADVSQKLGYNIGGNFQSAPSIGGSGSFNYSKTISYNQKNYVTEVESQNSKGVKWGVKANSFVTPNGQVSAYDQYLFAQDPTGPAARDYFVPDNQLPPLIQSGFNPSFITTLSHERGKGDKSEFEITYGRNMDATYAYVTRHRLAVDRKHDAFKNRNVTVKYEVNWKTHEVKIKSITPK

T2: S. aureus gamma-hemolysin component C (HlgC) (Staphylococcus aureus, UniProt Q07227 30-315)
T2 sequence: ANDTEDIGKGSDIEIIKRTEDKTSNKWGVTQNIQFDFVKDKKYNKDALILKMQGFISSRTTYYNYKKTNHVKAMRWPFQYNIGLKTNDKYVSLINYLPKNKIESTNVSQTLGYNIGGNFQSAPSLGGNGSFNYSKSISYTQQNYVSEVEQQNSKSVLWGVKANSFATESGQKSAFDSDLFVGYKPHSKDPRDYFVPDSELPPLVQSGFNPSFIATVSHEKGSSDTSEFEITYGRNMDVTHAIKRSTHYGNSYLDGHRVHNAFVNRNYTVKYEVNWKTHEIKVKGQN

T3: S. aureus gamma-hemolysin component B (HlgB) (Staphylococcus aureus, UniProt P0A075 27-325)
T3 sequence: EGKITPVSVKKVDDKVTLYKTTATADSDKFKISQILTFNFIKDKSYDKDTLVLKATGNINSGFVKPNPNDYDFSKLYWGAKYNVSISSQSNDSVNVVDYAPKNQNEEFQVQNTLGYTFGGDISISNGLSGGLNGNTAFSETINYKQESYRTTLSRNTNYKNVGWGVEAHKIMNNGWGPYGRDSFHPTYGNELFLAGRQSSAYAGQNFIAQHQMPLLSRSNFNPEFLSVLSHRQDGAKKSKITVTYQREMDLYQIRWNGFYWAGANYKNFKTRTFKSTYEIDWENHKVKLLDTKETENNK

B1: Bm31A09 (VHH)
VHH: QVQLVQSGGGLVQAGGSLRLSCAASGSTGSIYVMGWFRQAPGKQRELVASITRGEGSANYADSVKGRFTISRDNAKNTLYLQMNSLKPEDTAVYYCHADTGLGDYSDYAPHGYKYDYWGQGTQVTVSS
B2: Bm31D02 (VHH)
VHH: QVQLVESGGGLVQAGGSLRLSCAASGSTGSIYVMGWFRQAPGKQRELVASITRGEGSANYADSVKGRFTISRDNAKNTLYLQMNSLKPEDTAVYYCHADTGLGDYSDYAPHGYKYDYWGQGTQVTVSS
B3: Bm31A04 (VHH)
VHH: QVQLVQSGGGLVQPGGSLRLSCAASESISNIYVMGWFRQAPGKQRELVAAITSSNNTNYADSVKGRFTISRDNAKNTVYLQMNSLKPEDTAVYYCNADWGLGGYSDYGEYDYWGQGTQVTVSS
B4: Bm31G04 (VHH)
VHH: QVQLVESGGGLVQPGGSLRLSCAASGITFTFYDMGWYRQAPGKQRELVATISISSSTTYADSVKGRFTISRDNAKNTVYLQMNSLKPEDTAVYYCNAQHVDSDYLAGYDYFGQGTQVTVSS
B5: Bm31D04 (VHH)
VHH: QVQLVESGGGLVQPGGSLRLSCAASGIIFDFYDMGWYRQAPGKQRELVAGISISGSTTYADSVKGRFTISRDNAKNTIYLQMNSLKPEDTAVYYCNAHHVDSDYLRGYDYFGQGTQVTVSS
B6: Bm31G03 (VHH)
VHH: QVQLVESGGGLVQAGGSLRLSCAASGIIFSFYDMGWYRQAPGKQREVVATISISGRTTYADSVKGRFTISRDDAKNTVYLQMNSLKPEDTAVYICNAQHVDSDYLAGYDYFGQGTQVTVSS
B7: Bm31F09 (VHH)
VHH: QVQLVESGGALVQPGGSLRLSCAASGFTFDDYVMSWVRQAPGTGLEWVSSIHTASSDTYYADSVKDRFTISTDNAKNTLYLQMNSLKPEDTAVYYCAADKAPLTIATMTRDEYDYWGQGTQVTVSS
B8: Bm31G12 (VHH)
VHH: QVQLVESGGGLVQPGGSLRLSCAAAGFTVDDYVMSWVRQVPGKGREWVSSIHSYSSDTYYADSVKGRFTISTDNAKNTLYLQMNSLKPEDTAVYYCAADKDPLTIATMTRYEYDYWGQGTQVTVSS
B9: Bm31B04 (VHH)
VHH: QVQLVESGGGLVQPGGSLRLSCAASGSSFSIYGMSWYRQAPGNQRELVALINVGDWTTYADSVKGRFTISRDSAKNTVYLQMNSLKPEDTAVYYCKADLSVSGSSFIRTYWGQGTQVTVSS
B10: Bm31A08 (VHH)
VHH: QVQLVESGGGLAQPGGSLTLSCAASGVVWSKYVMSWVRQVPEKGFEWVSGIKSDGSDTYYADSVKGRFTVSGDLAKKTVYLQLNSLKPEDTALYYCVLEYGTSWPPRVEEYDYWGQGTQVTVSS
B11: Bm32A08 (VHH)
VHH: QVQLVESGGGLVQAGGSLRVSCAASGDWFIINSMAWFRQAPGKQREQVATISHGGIPRYADSVKGRFTISRDNSKGAVYLQMNNLKSDDTAMYVCAAGGLDYGFPDPTPEEFDYWGRGTQVTVSS
B12: Bm32F03 (VHH)
VHH: QVQLVESGGGLVQAGGSLRVSCAASGDWFIINSMAWFRQAPGKQREQVATISHGGIPRYADSVKGRFTISRDDSKDAVYLQMNNLKSDDTAMYVCAAGGLDYGFPDPTPEEFDYWGRGTQVTVSS
B13: Bm32B07 (VHH)
VHH: QVQLVESGGGLVQTGGSLRLSCATSGRISSIYAMPWFRQAPGKEREFVAAISWHTDLAYYADSVKGRFTISKDNAKNTVYLQMNSLKPEDTAVYYCNIPSKEEYDRNYYYPTGGSWGQGTQVTVSS
B14: Bm32D01 (VHH)
VHH: QVQLVESGGGLVQTGGSLRLSCATSGRISSIYAMPWFRQAPGKEREFVAAISWHTDLTYYADSVKDRFTISKDNAKATVYLQMNNLQPEDTAVYYCNVPSKEQYDRTSYYPTGGSWGQGTQVTVSS
B15: Bm32A03 (VHH)
VHH: QVQLVESGGALVQTGGSLRLSCVTSGSISSIYAMPWFRQAPGKEREFVAAISWHTNLAYYADSVKGRFTISKDNAKNTVYLQMDSLKPEDTATYYCNVPSKEEYDRTSYYPTGGSWGQGTQVTVSS
B16: Bm29C02 (VHH)
VHH: QVQLVESGGGLVQPGGSLRLSCTASGFTLDDWAIGWFRQAPGKEREGVSCTSSRERSSYYRDSVKGRFTISRDSTSNTVYLQMNELTLEDTAVYYCAADPQPYPCSLGQLGRYTTWGQGTQVTVSS
notes: also called anti-HlgB VHH Bm29C02
B17: Bm29E06 (VHH)
VHH: QVQLVESGGGLVQPGGSLRLSCTASGVSLYDFAVGWFRQAPGKEREGVSCSSSRDRSEYYRDSVKGRFDIVRDNLKNIIYLQMDNLTIEDTAVYFCAADSQPYPCSLGSLERYDSWGQGTQVTVSS
B18: Bm29F05 (VHH)
VHH: QVQLVESGGGLVQPGGSLRLSCTASGVSLYDFAVGWWRQAPGKEREGVSCTSSRDRSEYYRDSVKGRFTIVRDNLKNTIYLQMDSLTIEDTAVYFCAADSQPYPCSLGSLERYDSWGQGIQVTVSS
B19: Bm29B04 (VHH)
VHH: QVQLVESGGGLVQAGGSLRLSCAASGFTFDDYVIGWFRQAPGKEREAVACISNGDGVANVPNSMKGRFTISSDSAKNTVHLRADSLKADDTGVYYCAAVKERLCVHEGMEYWGKGTQVTVSS
B20: Bm29B05 (VHH)
VHH: QVQLVESGGGLVQAGGSLRLSCAASGFTFDDYVIGWFRQAPGKEREAVACISNGDGVTNYPNSMRGRFTISSDSAKNTVYLQTDSLKPDDTGVYYCATAKERLCVQGGMEYWGKGTLVTVSS
B21: Bm29D07 (VHH)
VHH: QVQLVESGGGLVQPGGSLRLSCTASSIIVSYYAIGWFRQAPGKGREGVSRITVPAGNLYYADSVKGRFSITRDDVKNTVYLQMNSFQVEDTATYYCAVSYGDSWVDPSYVDHWGQGIQVTVSS
B22: Bm29H04 (VHH)
VHH: QVQLVESGGGLVQPGGSLRLSCTASGVSLDDFAIGWFRQAPGKEREGVSCSSSRDRSEYYRDSVKGRFTISRDSQKNTVDLQMNSLTIEDTAVYYCAADPQPYPCSVGSLDRYNSWGQGTLVTVSS

One experiment has as its target T1, S. aureus gamma-hemolysin component A …. The experiment can be described thus: BLI, biotinylated VHH on streptavidin sensor, HlgA in solution. In general terms: Biolayer interferometry detects binding as a change in optical thickness at a sensor tip.
Broadly, the Kd is the free concentration of one partner at which half of the binding sites on the other are occupied at equilibrium, for simple one-to-one binding. Molecule B1 showed a Kd of 50 pM.
Same read-out and setting: the value for B2 was 70 pM; that for B3 was 60 pM; that for B4 was 25 pM.
Molecule B5 registered a Kd of 50 pM.
Same read-out and setting: the value for B6 was 15 pM; that for B7 was 90 pM; that for B8 was 25 pM.
On the same count and under the same terms, the value for B9 was not above 10 pM; that for B10 was not above 10 pM.

The next experiment has as its target T2, S. aureus gamma-hemolysin component C …. Description: BLI, biotinylated VHH on streptavidin sensor, HlgC in solution.
As for B11, the Kd worked out at 45 pM.
The same measure, in the same setting: the value for B12 was 850 pM; that for B13 was 45 pM.
On the same count and under the same terms, the value for B14 was 30 pM; that for B15 was 25 pM.

For another experiment, the target named is T3, S. aureus gamma-hemolysin component B …. The experiment can be described thus: BLI, biotinylated VHH on streptavidin sensor, HlgB in solution.
On to B16, for which the Kd came to 10 pM.
On the same count and under the same terms, the value for B17 was 30 pM; that for B18 was 20 pM; that for B19 was not above 10 pM.
Still for that read-out and setting: with B20 the figure was not above 10 pM.
Still for that read-out and setting: the value for B21 was not above 10 pM; that for B22 was 60 pM.
